Measurements: the supplement of paper PMC10065799, “High-throughput profiling of sequence recognition by tyrosine kinases and SH2 domains using bacterial peptide display” (eLife, 2023)

Columns and labels:
EPHB2 = EPHB2 (UniProt P29323); assay: phosphorylation enrichment, bacterial display (enrichment ratio); higher = better substrate or ligand; peptides without Tyr show the background
FGFR3 = FGFR3 (UniProt P22607); assay: as above
EPHB1 = EPHB1 (UniProt P54762); assay: as above
MERTK = MERTK (UniProt Q12866); assay: as above
FGFR1 = FGFR1 (UniProt P11362); assay: as above
Fyn = Fyn (UniProt P06241); assay: as above
Hck = Hck (UniProt P08631); assay: as above
c-Abl (mouse) = assay: as above
AncSZ = assay: as above
c-Src = assay: as above
Jak2 = Jak2 (UniProt O60674); assay: as above
Fes = Fes (UniProt P07332); assay: as above
Fer (mouse) = assay: as above
c-Src SH2 = assay: SH2 binding enrichment of the phosphorylated peptide, bacterial display (enrichment ratio); higher = better substrate or ligand; peptides without Tyr show the background
SHP2-C SH2 = assay: as above
Grb2 SH2 = Grb2 SH2 (UniProt P62993); assay: as above
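Throughout, for SH2 binding enrichment of the phosphorylated peptide, bacterial display: peptide library displayed on the E. coli surface as eCPX fusions, selected cells deep-sequenced, score is each peptide's frequency after selection divided by its frequency in the input.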
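Throughout, for phosphorylation enrichment, bacterial display: 11-residue human phosphosite peptides and single-mutation variants displayed on the E. coli surface, counted by deep sequencing, each peptide's frequency after selection divided by its frequency in the unselected input library; frequency after pTyr selection over input frequency; kinase dosed for 20-30% of maximal phosphorylation in three min.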

Chain of Hck (P08631 whole entry, looked up): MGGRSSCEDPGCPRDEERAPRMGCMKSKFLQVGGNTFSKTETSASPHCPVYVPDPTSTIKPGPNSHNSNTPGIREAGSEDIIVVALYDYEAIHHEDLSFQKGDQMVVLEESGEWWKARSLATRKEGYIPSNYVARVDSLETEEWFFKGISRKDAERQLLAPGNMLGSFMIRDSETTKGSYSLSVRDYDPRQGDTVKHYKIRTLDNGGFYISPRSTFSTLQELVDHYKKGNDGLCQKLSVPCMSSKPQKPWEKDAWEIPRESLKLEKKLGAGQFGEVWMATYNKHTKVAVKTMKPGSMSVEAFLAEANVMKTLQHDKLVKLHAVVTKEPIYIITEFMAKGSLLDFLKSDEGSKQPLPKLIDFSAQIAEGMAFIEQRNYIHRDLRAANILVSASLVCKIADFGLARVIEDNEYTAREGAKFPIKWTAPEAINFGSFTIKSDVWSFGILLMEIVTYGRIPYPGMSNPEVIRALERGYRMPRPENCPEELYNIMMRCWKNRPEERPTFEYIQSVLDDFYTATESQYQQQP
Chain of EPHB2 (P29323 whole entry, looked up): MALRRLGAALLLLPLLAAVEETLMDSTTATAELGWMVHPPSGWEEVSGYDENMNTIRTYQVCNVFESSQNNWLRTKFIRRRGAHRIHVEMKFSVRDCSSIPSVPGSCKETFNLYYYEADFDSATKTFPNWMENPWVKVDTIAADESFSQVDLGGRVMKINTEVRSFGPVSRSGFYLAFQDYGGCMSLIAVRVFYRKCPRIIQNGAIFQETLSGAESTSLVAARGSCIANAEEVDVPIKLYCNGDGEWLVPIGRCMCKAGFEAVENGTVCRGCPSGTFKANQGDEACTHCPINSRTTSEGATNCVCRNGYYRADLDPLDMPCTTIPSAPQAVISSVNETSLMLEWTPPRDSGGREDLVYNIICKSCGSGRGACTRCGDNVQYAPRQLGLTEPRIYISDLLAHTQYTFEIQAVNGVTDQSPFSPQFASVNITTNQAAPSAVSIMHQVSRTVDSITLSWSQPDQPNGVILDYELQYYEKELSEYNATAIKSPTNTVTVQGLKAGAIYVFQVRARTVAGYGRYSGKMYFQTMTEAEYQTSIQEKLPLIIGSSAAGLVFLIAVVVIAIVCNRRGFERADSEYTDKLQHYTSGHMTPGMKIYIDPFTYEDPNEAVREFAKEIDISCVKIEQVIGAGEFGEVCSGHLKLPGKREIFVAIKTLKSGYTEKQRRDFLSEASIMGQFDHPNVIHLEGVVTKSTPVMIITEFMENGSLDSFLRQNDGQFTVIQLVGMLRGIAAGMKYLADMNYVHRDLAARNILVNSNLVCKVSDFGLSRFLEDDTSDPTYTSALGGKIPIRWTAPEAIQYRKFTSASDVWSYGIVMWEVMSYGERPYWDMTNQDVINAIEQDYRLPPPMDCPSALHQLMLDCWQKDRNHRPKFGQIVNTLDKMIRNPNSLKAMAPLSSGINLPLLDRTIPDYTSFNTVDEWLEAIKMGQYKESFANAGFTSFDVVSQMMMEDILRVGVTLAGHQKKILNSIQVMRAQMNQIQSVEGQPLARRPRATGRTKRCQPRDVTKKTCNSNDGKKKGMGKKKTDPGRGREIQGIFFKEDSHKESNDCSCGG
Chain of MERTK (Q12866 whole entry, looked up): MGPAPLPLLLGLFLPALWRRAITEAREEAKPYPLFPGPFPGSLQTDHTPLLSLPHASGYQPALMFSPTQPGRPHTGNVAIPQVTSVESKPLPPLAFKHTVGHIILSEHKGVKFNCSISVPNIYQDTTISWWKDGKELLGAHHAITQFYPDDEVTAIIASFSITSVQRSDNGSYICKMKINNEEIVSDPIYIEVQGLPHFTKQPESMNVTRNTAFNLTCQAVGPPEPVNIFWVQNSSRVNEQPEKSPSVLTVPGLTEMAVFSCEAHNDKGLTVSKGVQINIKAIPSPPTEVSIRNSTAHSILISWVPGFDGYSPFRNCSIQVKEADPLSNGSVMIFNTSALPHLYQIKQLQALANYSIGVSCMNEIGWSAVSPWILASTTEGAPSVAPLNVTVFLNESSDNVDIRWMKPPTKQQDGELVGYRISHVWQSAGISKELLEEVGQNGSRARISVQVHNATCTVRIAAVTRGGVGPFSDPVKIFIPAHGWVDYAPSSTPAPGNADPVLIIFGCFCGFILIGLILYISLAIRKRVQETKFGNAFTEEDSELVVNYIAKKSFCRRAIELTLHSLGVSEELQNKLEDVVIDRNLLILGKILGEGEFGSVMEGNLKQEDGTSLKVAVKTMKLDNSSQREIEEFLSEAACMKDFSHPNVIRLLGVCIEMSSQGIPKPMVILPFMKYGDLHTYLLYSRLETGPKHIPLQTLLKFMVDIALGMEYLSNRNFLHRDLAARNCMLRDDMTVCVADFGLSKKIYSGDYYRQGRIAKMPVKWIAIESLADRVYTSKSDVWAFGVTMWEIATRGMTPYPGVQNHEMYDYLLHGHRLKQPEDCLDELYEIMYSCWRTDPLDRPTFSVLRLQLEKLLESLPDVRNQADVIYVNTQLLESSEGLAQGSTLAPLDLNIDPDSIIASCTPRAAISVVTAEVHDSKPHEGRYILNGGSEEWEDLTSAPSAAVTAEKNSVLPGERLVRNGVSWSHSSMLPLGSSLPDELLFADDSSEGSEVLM
Chain of Fes (P07332 whole entry, looked up): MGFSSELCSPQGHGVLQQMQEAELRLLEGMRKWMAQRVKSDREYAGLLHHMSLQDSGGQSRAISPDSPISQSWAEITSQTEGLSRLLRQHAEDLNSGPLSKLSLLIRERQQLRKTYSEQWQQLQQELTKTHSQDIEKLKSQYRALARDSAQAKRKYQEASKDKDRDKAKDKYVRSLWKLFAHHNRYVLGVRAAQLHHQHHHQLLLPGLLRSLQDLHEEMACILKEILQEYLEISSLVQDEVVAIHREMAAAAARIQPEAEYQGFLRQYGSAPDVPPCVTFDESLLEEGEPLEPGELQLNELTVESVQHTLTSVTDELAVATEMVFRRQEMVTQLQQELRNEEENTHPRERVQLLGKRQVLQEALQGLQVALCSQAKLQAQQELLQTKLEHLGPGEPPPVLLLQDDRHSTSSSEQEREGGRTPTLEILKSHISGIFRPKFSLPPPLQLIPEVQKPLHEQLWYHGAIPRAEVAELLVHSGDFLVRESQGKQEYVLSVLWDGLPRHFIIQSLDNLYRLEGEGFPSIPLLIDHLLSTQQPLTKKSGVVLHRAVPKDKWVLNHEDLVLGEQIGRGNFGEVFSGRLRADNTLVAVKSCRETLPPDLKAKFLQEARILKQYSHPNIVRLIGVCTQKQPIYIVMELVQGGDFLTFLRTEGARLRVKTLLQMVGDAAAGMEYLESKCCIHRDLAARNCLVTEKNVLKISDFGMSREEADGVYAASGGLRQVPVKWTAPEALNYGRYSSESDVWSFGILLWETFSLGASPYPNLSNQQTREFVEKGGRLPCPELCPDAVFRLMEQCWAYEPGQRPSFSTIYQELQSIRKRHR
Chain of Jak2 (O60674 whole entry, looked up): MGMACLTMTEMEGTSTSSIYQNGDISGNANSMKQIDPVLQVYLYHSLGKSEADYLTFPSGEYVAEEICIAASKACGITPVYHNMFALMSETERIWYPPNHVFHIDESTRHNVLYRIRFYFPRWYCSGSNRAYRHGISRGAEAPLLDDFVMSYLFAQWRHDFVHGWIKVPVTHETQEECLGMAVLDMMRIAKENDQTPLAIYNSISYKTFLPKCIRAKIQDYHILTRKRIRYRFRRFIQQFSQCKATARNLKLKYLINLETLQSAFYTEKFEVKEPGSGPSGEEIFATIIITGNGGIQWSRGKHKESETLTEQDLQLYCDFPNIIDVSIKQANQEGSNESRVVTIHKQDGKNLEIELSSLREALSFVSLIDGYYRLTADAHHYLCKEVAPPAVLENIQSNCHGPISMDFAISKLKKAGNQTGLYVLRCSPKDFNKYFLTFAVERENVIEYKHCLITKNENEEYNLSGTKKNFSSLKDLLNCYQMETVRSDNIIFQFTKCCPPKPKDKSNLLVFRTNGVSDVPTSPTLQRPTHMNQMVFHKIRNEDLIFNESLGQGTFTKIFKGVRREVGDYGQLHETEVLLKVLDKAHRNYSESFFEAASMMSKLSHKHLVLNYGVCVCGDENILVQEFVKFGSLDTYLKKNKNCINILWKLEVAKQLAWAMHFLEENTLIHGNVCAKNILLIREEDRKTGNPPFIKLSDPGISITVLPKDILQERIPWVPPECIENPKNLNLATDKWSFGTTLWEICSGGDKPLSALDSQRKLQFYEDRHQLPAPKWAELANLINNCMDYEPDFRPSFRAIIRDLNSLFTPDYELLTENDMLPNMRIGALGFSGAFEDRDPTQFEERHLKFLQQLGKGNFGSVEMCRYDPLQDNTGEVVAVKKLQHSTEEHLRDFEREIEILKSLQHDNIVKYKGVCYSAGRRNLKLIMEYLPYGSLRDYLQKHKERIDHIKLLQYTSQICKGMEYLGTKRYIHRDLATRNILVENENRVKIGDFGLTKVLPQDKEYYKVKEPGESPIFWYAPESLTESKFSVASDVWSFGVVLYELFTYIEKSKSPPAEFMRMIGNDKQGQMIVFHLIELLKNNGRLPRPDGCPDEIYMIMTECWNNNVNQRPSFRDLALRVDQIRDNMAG
Chain of Fyn (P06241 whole entry, looked up): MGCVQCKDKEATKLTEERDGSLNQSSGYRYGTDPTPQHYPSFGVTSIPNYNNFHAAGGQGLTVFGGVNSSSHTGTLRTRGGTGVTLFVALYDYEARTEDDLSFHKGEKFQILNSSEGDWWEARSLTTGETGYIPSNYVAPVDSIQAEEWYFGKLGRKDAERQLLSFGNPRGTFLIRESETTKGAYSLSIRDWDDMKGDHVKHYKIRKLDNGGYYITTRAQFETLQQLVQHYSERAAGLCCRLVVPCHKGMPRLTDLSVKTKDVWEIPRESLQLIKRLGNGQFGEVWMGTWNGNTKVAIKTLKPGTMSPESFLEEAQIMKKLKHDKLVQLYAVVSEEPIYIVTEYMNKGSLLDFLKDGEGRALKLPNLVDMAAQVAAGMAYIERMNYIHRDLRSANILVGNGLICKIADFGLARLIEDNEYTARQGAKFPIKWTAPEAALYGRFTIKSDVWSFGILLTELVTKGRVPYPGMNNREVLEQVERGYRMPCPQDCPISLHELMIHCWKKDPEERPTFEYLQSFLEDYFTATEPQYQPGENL

Sequence | phosphorylation enrichment (EPHB2) | phosphorylation enrichment (FGFR3) | phosphorylation enrichment (EPHB1) | phosphorylation enrichment (MERTK) | phosphorylation enrichment (FGFR1) | phosphorylation enrichment (Fyn) | phosphorylation enrichment (Hck) | phosphorylation enrichment (c-Abl (mouse)) | phosphorylation enrichment (AncSZ) | phosphorylation enrichment (c-Src) | phosphorylation enrichment (Jak2) | phosphorylation enrichment (Fes) | phosphorylation enrichment (Fer (mouse)) | SH2 binding enrichment (c-Src SH2) | SH2 binding enrichment (SHP2-C SH2) | SH2 binding enrichment (Grb2 SH2)
KVKPIYLHTQG [AR_Y916_F917L] | 0.457 | 0.612 | 0.496 | 0.54 | 0.441 | 0.405 | 0.39 | 0.736 | 0.687 | 0.402 | 0.61 | 0.728 | 0.438 | 1.65 | 1.84 | 1.71
TGNGYYFRVFS [MYBPC3_Y1136_I1131T] | 0.657 | 0.766 | 0.707 | 0.353 | 0.542 | 0.334 | 0.436 | 0.818 | 1.04 | 0.332 | 1.41 | 1.3 | 0.594 | 0.492 | 0.753 | 0.87
GSRGKYFSGFR [ATM_Y332_S333F] | 0.399 | 0.412 | 0.425 | 0.481 | 0.415 | 0.386 | 0.351 | 0.657 | 0.547 | 0.616 | 0.885 | 0.736 | 0.325 | 0.544 | 0.833 | 0.963
FGGRDYSLDEF [MYOF_Y1705_YF] | 0.602 | 0.733 | 0.597 | 0.405 | 0.512 | 0.401 | 0.473 | 0.68 | 0.964 | 0.542 | 0.946 | 1.18 | 0.493 | 0.75 | 0.606 | 0.782
EVKEAYMGNVL [ACAT1_Y90] | 0.593 | 0.505 | 0.341 | 0.444 | 0.596 | 0.474 | 0.42 | 0.506 | 0.804 | 0.402 | 0.626 | 0.848 | 0.528 | 0.542 | 0.699 | 0.881
RGVTHYILQTF [SLC39A4_Y359] | 0.703 | 0.905 | 0.394 | 0.553 | 0.664 | 0.499 | 0.711 | 0.944 | 1.09 | 0.48 | 1.24 | 1.27 | 0.582 | 1.05 | 1.2 | 1.33
TFGVAYRAKDK [CDK11B_Y453_V452A_YF] | 0.575 | 0.484 | 0.472 | 0.358 | 0.418 | 0.437 | 0.537 | 0.498 | 1.08 | 0.282 | 1.09 | 1.03 | 0.342 | 0.507 | 0.674 | 0.842
PPSELYFVKVD [TERT_Y707_P704S] | 0.965 | 0.92 | 0.699 | 1.82 | 0.815 | 0.784 | 1.95 | 0.733 | 1.19 | 1.26 | 0.925 | 1.63 | 0.815 | 0.405 | 0.679 | 0.614
QLCVNYPGGYT [PROS1_Y259] | 0.772 | 1.42 | 1.32 | 0.513 | 0.767 | 1 | 0.965 | 0.845 | 1.24 | 0.537 | 0.999 | 1.66 | 0.811 | 0.528 | 0.571 | 0.796
APTSGYREFVH [IL4R_Y575_Q576R] | 0.342 | 0.474 | 0.378 | 0.483 | 0.462 | 0.422 | 0.379 | 0.508 | 0.681 | 0.397 | 0.441 | 0.561 | 0.485 | 0.518 | 0.561 | 0.882
CPFNLYAEQFS [HGD_Y40_L44F_YF] | 1.29 | 0.847 | 2.19 | 1.6 | 0.747 | 0.834 | 1.08 | 1.16 | 1.45 | 1.49 | 1.34 | 1.54 | 0.923 | 0.66 | 0.519 | 0.942
LGSNTYPFLLT [SAG_Y120] | 0.655 | 1.4 | 0.77 | 0.589 | 1.11 | 0.505 | 0.54 | 0.938 | 1.26 | 0.543 | 0.785 | 1.22 | 0.793 | 0.487 | 0.804 | 0.695
HRDSSYFWEIE [RAF1_Y340_Q335H_YF] | 0.629 | 0.984 | 0.59 | 0.628 | 1.02 | 0.579 | 0.638 | 1.13 | 1.34 | 0.888 | 2.02 | 1.8 | 0.497 | 0.802 | 0.52 | 0.856
FKEQGYHRLPS [RIN1_Y681_P686S_YF] | 0.603 | 0.583 | 1.26 | 1.05 | 2.57 | 0.305 | 0.63 | 1.3 | 1.23 | 0.818 | 2.09 | 1.49 | 0.822 | 1.24 | 0.762 | 1.01
NTFEKYWPFFQ [GATM_Y103_YF] | 0.512 | 1.08 | 0.488 | 0.886 | 1.08 | 0.69 | 1.42 | 0.795 | 0.987 | 0.935 | 0.898 | 1.09 | 0.429 | 0.926 | 1.24 | 1.5
NGLVAYKDGKL [PMM2_Y76] | 0.403 | 0.448 | 0.341 | 0.429 | 0.431 | 0.305 | 0.372 | 0.427 | 0.602 | 0.423 | 0.528 | 0.612 | 0.457 | 0.436 | 0.669 | 0.917
FDSPFYQDSLP [TSC1_Y508_R509Q] | 0.489 | 0.599 | 0.503 | 0.431 | 0.357 | 0.482 | 0.521 | 0.737 | 0.848 | 0.473 | 0.805 | 1.09 | 2.88 | 0.586 | 0.688 | 0.917
